Biological target: SARS-CoV-2 Spike protein S1 (SARS-CoV-2) (UniProt P0DTC2)
Assay: BLI

peptide … (sequence 24-42 of the ACE2 α1 domain)
IC50: 700 nM | peptide concentration of half effect on koff of the S1-ACE2 complex: 0.6 µM

From article doi:10.1101/2020.12.29.424682
